Paper PMC4013287 (Arteriosclerosis, thrombosis, and vascular biology, 2013)

Legend:
type 1 collagen = type 1 collagen (UniProt P02452); assay: ELISA
von Willebrand factor = von Willebrand factor (UniProt P04275 764-2813); assay: ELISA

Chain of type 1 collagen (P02452 23-1218, chain 1 of 2): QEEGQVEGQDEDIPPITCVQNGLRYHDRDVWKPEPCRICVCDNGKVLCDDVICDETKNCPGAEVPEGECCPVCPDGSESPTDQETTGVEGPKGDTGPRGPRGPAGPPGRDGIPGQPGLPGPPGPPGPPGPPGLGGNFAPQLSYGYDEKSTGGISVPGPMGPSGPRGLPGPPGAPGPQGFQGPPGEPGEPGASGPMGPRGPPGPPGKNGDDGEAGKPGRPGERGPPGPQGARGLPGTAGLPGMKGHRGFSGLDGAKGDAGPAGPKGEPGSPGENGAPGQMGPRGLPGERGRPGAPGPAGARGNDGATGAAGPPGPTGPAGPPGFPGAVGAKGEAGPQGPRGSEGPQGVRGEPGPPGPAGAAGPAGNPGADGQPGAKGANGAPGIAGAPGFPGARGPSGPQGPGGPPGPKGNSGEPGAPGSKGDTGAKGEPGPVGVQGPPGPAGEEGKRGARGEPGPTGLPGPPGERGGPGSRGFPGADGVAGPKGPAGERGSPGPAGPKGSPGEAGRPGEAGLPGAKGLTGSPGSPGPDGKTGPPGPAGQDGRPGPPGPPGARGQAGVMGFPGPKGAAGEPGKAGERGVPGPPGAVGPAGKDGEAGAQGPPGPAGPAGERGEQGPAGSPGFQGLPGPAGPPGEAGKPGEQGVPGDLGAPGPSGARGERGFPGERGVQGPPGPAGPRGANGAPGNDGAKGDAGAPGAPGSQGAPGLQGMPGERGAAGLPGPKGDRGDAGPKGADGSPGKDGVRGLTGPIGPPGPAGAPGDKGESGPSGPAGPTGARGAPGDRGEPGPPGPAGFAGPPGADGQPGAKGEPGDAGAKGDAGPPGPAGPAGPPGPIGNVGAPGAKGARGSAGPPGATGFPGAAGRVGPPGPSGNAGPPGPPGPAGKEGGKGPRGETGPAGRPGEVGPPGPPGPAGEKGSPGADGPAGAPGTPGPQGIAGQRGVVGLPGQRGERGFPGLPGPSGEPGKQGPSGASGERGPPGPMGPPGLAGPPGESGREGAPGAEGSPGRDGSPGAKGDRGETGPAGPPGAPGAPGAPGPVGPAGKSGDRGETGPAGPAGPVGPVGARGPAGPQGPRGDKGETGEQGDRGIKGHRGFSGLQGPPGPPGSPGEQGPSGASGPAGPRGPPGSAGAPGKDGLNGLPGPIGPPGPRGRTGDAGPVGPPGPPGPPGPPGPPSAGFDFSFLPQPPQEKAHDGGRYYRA
Chain of type 1 collagen (P08123 80-1119, chain 2 of 2, further chain): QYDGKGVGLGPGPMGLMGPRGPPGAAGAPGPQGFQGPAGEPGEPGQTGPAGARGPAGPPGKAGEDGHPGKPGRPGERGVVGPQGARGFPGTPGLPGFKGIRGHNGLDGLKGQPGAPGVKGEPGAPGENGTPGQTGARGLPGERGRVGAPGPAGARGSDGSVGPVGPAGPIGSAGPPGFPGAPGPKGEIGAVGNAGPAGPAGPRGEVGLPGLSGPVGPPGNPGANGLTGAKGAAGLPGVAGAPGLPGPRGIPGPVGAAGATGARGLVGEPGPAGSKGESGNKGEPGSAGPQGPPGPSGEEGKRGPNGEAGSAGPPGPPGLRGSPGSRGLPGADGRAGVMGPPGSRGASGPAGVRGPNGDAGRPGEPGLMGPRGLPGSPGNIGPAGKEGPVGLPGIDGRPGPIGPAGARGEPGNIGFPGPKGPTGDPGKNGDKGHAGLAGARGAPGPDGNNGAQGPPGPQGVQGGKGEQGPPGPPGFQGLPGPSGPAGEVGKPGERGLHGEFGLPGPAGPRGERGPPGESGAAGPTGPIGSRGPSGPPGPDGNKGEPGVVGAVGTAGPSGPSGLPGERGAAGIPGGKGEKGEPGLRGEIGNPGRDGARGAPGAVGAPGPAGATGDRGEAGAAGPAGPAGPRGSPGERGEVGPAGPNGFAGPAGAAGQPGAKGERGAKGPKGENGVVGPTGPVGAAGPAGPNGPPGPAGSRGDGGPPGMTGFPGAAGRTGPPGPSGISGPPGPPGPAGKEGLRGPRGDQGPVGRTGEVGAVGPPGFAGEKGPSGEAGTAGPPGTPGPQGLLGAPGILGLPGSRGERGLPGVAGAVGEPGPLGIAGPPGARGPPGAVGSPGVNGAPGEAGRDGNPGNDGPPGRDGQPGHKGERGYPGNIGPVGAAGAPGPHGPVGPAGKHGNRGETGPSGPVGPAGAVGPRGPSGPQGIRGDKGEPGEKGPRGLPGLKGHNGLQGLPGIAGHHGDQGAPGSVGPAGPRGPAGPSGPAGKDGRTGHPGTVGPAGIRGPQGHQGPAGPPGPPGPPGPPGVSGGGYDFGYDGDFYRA

B1: Recombinant human full-length ADAMTS13 (enzyme, UniProt Q76LX8 75-1427, looked up)
chain: AAGGILHLELLVAVGPDVFQAHQEDTERYVLTNLNIGAELLRDPSLGAQFRVHLVKMVILTEPEGAPNITANLTSSLLSVCGWSQTINPEDDTDPGHADLVLYITRFDLELPDGNRQVRGVTQLGGACSPTWSCLITEDTGFDLGVTIAHEIGHSFGLEHDGAPGSGCGPSGHVMASDGAAPRAGLAWSPCSRRQLLSLLSAGRARCVWDPPRPQPGSAGHPPDAQPGLYYSANEQCRVAFGPKAVACTFAREHLDMCQALSCHTDPLDQSSCSRLLVPLLDGTECGVEKWCSKGRCRSLVELTPIAAVHGRWSSWGPRSPCSRSCGGGVVTRRRQCNNPRPAFGGRACVGADLQAEMCNTQACEKTQLEFMSQQCARTDGQPLRSSPGGASFYHWGAAVPHSQGDALCRHMCRAIGESFIMKRGDSFLDGTRCMPSGPREDGTLSLCVSGSCRTFGCDGRMDSQQVWDRCQVCGGDNSTCSPRKGSFTAGRAREYVTFLTVTPNLTSVYIANHRPLFTHLAVRIGGRYVVAGKMSISPNTTYPSLLEDGRVEYRVALTEDRLPRLEEIRIWGPLQEDADIQVYRRYGEEYGNLTRPDITFTYFQPKPRQAWVWAAVRGPCSVSCGAGLRWVNYSCLDQARKELVETVQCQGSQQPPAWPEACVLEPCPPYWAVGDFGPCSASCGGGLRERPVRCVEAQGSLLKTLPPARCRAGAQQPAVALETCNPQPCPARWEVSEPSSCTSAGGAGLALENETCVPGADGLEAPVTEGPGSVDEKLPAPEPCVGMSCPPGWGHLDATSAGEKAPSPWGSIRTGAQAAHVWTPAAGSCSVSCGRGLMELRFLCMDSALRVPVQEELCGLASKPGSRREVCQAVPCPARWQYKLAACSVSCGRGVVRRILYCARAHGEDDGEEILLDTQCQGLPRPEPQEACSLEPCPPRWKVMSLGPCSASCGLGTARRSVACVQLDQGQDVEVDEAACAALVRPEASVPCLIADCTYRWHVGTWMECSVSCGDGIQRRRDTCLGPQAQAPVPADFCQHLPKPVTVRGCWAGPCVGQGTPSLVPHEEAAAPGRTTATPAGASLEWSQARGLLFSPAPQPRRLLPGPQENSVQSSACGRQHLEPTGTIDMRGPGQADCAVAIGRPLGEVVTLRVLESSLNCSAGDMLLLWGRLTWRKMCRKLLDMTFSSKTNTLVVRQRCGRPGGGVLLRYGSQLAPETFYRECDMQLFGPWGEIVSPSLSPATSNAGGCRLFINVAPHARIAIHALATNMGAGTEGANASYILIRDTHSLRTTAFHGQQVLYWESESSQAEMEFSEGFLKAQASLRGQYWTLQSWVPEMQDPQSWKGKEGT
- Kd (type 1 collagen): 257 nM
- Kd (von Willebrand factor): 8.2 ± 1.6 nM
